Screen value data for 37 variants are collected here from publication PMC7954794 (2021).

The chains are these.
B1: S. cerevisiae Abp1 (full length; SH3 domain 535-592 mutated) / Hua2 (parent complex)
chain 1: MALEPIDYTTHSREIDAEYLKIVRGSDPDTTWLIISPNAKKEYEPESTGSSFHDFLQLFDETKVQYGLARVSPPGSDVEKIIIIGWCPDSAPLKTRASFAANFAAVANNLFKGYHVQVTARDEDDLDENELLMKISNAAGARYSIQTSSKQQGKASTPPVKKSFTPSKSPAPVSKKEPVKTPSPAPAAKISSRVNDNNDDDDWNEPELKERDFDQAPLKPNQSSYKPIGKIDLQKVIAEEKAKEDPRLVQKPTAAGSKIDPSSDIANLKNESKLKRDSEFNSFLGTTKPPSMTESSLKNDDDKVIKGFRNEKSPAQLWAERKAKQNSGNAETKAEAPKPEVPEDEPEGEPDVKDLKSKFEGLAASEKEEEEMENKFAPPPKKSEPTIISPKPFSKPQEPVKAEEAEQPKTDYKKIGNPLPGMHIEADNEEEPEENDDDWDDDEDEAAQPPLPSRNVASGAPVQKEEPEQEEIAPSLPSRNSIPAPKQEEAPEQAPEEEIEEEAEEAAPQLPSRSSAAPPPPPRRATPEKKPKENPWATAEYDYDAAEDNELTFVENDKIINIEFVDDDWWLGELEKDGSKGLFPSNYVSLGN
chain 2: MQQTKFGKMYLDHDSVVEYSEDEIVEADRITLGYKKRLSMIENQMRHLLEDFSLDVQQIEPILADLQKYYDAFLQLLQKRNKSLQCKRSTHQPVPSPMNSQTSTNAKVNLSGKLMKFQLNSVQKFDEENILRILQNKIEFEHYFQIDKGKKQKVLLLAVYQCLNGPTRLHKVLNIEGIIHNNSIRTILGKQVSSSKWTVFLYDVKLVLLAHRQDVPNLETSKMIVRYGDLFPCALYFKDHTAY

This test covers variants of B1. Nature of the test: DHFR protein-fragment complementation in yeast (Abp1-DHFR F[1,2] x partner-DHFR F[3]), deep mutational scanning, second methotrexate selection vs reference; S. cerevisiae, DHFR-PCA selection in liquid with methotrexate at 30 C, two 72 h selections (the score uses the second); reference = the pre-selection culture.
Regarding chain 1 N592H, the screen value was -1.31 DMS score: mean over two replicates of log2(f_test/f_ref + 0.5)/ln 2, minus the synonymous-codon median (not a log2 ….

For the variant chain 1 N592D, the screen value was -0.398 DMS score: mean over two replicates of log2(f_test/f_ref + 0.5)/ln 2, minus the synonymous-codon median (not a log2 ….

In the case of chain 1 V565S, the screen value is -0.833 DMS score: mean over two replicates of log2(f_test/f_ref + 0.5)/ln 2, minus the synonymous-codon median (not a log2 ….

Turning to chain 1 V565M, the screen value is -1.83 DMS score: mean over two replicates of log2(f_test/f_ref + 0.5)/ln 2, minus the synonymous-codon median (not a log2 ….

For chain 1 V565K, the screen value was -2.9 DMS score: mean over two replicates of log2(f_test/f_ref + 0.5)/ln 2, minus the synonymous-codon median (not a log2 ….

Take chain 1 L582I: the screen value is -1.44 DMS score: mean over two replicates of log2(f_test/f_ref + 0.5)/ln 2, minus the synonymous-codon median (not a log2 ….

In the case of chain 1 L582R, the screen value is -1.77 DMS score: mean over two replicates of log2(f_test/f_ref + 0.5)/ln 2, minus the synonymous-codon median (not a log2 ….

chain 1 A546T: the screen value was 0.35 DMS score: mean over two replicates of log2(f_test/f_ref + 0.5)/ln 2, minus the synonymous-codon median (not a log2 ….

As for chain 1 A546I, the screen value is 0.793 DMS score: mean over two replicates of log2(f_test/f_ref + 0.5)/ln 2, minus the synonymous-codon median (not a log2 ….

On to chain 1 A546S, for which the screen value was 0.374 DMS score: mean over two replicates of log2(f_test/f_ref + 0.5)/ln 2, minus the synonymous-codon median (not a log2 ….

chain 1 A546N: the screen value is -0.272 DMS score: mean over two replicates of log2(f_test/f_ref + 0.5)/ln 2, minus the synonymous-codon median (not a log2 ….

Take chain 1 A546E: the screen value is 0.502 DMS score: mean over two replicates of log2(f_test/f_ref + 0.5)/ln 2, minus the synonymous-codon median (not a log2 ….

Regarding chain 1 D542P, the screen value is 0.905 DMS score: mean over two replicates of log2(f_test/f_ref + 0.5)/ln 2, minus the synonymous-codon median (not a log2 ….

For the variant chain 1 D542C, the screen value was 0.23 DMS score: mean over two replicates of log2(f_test/f_ref + 0.5)/ln 2, minus the synonymous-codon median (not a log2 ….

chain 1 A545C: the screen value is -0.621 DMS score: mean over two replicates of log2(f_test/f_ref + 0.5)/ln 2, minus the synonymous-codon median (not a log2 ….

Take chain 1 A545T: the screen value was -0.0243 DMS score: mean over two replicates of log2(f_test/f_ref + 0.5)/ln 2, minus the synonymous-codon median (not a log2 ….

For the variant chain 1 A545R, the screen value is -0.103 DMS score: mean over two replicates of log2(f_test/f_ref + 0.5)/ln 2, minus the synonymous-codon median (not a log2 ….

For chain 1 A545S, the screen value was 0.0984 DMS score: mean over two replicates of log2(f_test/f_ref + 0.5)/ln 2, minus the synonymous-codon median (not a log2 ….

For the variant chain 1 E563V, the screen value was -0.477 DMS score: mean over two replicates of log2(f_test/f_ref + 0.5)/ln 2, minus the synonymous-codon median (not a log2 ….

chain 1 N549Y: the screen value is -1.27 DMS score: mean over two replicates of log2(f_test/f_ref + 0.5)/ln 2, minus the synonymous-codon median (not a log2 ….

On to chain 1 K580H, for which the screen value is -0.129 DMS score: mean over two replicates of log2(f_test/f_ref + 0.5)/ln 2, minus the synonymous-codon median (not a log2 ….

Regarding chain 1 K580V, the screen value was 0.0627 DMS score: mean over two replicates of log2(f_test/f_ref + 0.5)/ln 2, minus the synonymous-codon median (not a log2 ….

Take chain 1 K580A: the screen value is -0.331 DMS score: mean over two replicates of log2(f_test/f_ref + 0.5)/ln 2, minus the synonymous-codon median (not a log2 ….

Consider chain 1 K580M, for which the screen value is -0.619 DMS score: mean over two replicates of log2(f_test/f_ref + 0.5)/ln 2, minus the synonymous-codon median (not a log2 ….

With chain 1 N556S, the screen value was 0.415 DMS score: mean over two replicates of log2(f_test/f_ref + 0.5)/ln 2, minus the synonymous-codon median (not a log2 ….

chain 1 N556K: the screen value is -0.169 DMS score: mean over two replicates of log2(f_test/f_ref + 0.5)/ln 2, minus the synonymous-codon median (not a log2 ….

Regarding chain 1 N556D, the screen value was 0.175 DMS score: mean over two replicates of log2(f_test/f_ref + 0.5)/ln 2, minus the synonymous-codon median (not a log2 ….

With chain 1 N561K, the screen value was -0.913 DMS score: mean over two replicates of log2(f_test/f_ref + 0.5)/ln 2, minus the synonymous-codon median (not a log2 ….

Turning to chain 1 E547T, the screen value was -2.64 DMS score: mean over two replicates of log2(f_test/f_ref + 0.5)/ln 2, minus the synonymous-codon median (not a log2 ….

As to chain 1 E547D, the screen value was -0.281 DMS score: mean over two replicates of log2(f_test/f_ref + 0.5)/ln 2, minus the synonymous-codon median (not a log2 ….

Consider chain 1 E547L, for which the screen value is -0.584 DMS score: mean over two replicates of log2(f_test/f_ref + 0.5)/ln 2, minus the synonymous-codon median (not a log2 ….

With chain 1 E555H, the screen value is -0.509 DMS score: mean over two replicates of log2(f_test/f_ref + 0.5)/ln 2, minus the synonymous-codon median (not a log2 ….

In the case of chain 1 E555R, the screen value is 0.193 DMS score: mean over two replicates of log2(f_test/f_ref + 0.5)/ln 2, minus the synonymous-codon median (not a log2 ….

With chain 1 E555I, the screen value is 0.585 DMS score: mean over two replicates of log2(f_test/f_ref + 0.5)/ln 2, minus the synonymous-codon median (not a log2 ….

chain 1 E540A: the screen value was -0.942 DMS score: mean over two replicates of log2(f_test/f_ref + 0.5)/ln 2, minus the synonymous-codon median (not a log2 ….

As to chain 1 D544E, the screen value is -0.1 DMS score: mean over two replicates of log2(f_test/f_ref + 0.5)/ln 2, minus the synonymous-codon median (not a log2 ….

chain 1 D544G: the screen value is -0.178 DMS score: mean over two replicates of log2(f_test/f_ref + 0.5)/ln 2, minus the synonymous-codon median (not a log2 ….
